Fewer inactive variants are shown than the library holds.
Columns and labels:
biotinyl-Leu-oxazolone = assay: self-aminoacylation, catalytic enhancement (BLO) (fold over background); higher = more active; k-Seq, kA / k0A0; sequences stand for … in GGGAAUGGAUCCACAUCUACGAAUUC…UUCACUGCAGACUUGACGAAGCUG
How it was run: (§1)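 Working in 50 μL HEPES/NaCl/KCl/MgCl2/CaCl2 buffer with 5% acetonitrile at pH 6.9–7.0, mutagenized RNA pools (0.43 μM; 21-nt variable region) were reacted with 2–1250 μM of each biotinyl-aminoacyl-oxazolone for 90 minutes at room temperature. Streptavidin capture followed, with quantification by triplicate qPCR and Illumina sequencing. Catalytic enhancement is reported as median kA over the uncatalyzed rate, the low-activity peak of a bimodal Gaussian fit to the data.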

biotinyl-Ile-oxazolone = assay: self-aminoacylation, catalytic enhancement (BIO) (fold over background); higher = more active; k-Seq, kA / k0A0; sequences stand for … in GGGAAUGGAUCCACAUCUACGAAUUC…UUCACUGCAGACUUGACGAAGCUG
How it was run: as §1

biotinyl-Val-oxazolone = assay: self-aminoacylation, catalytic enhancement (BVO) (fold over background); higher = more active; k-Seq, kA / k0A0; sequences stand for … in GGGAAUGGAUCCACAUCUACGAAUUC…UUCACUGCAGACUUGACGAAGCUG
How it was run: as §1

biotinyl-Met-oxazolone = assay: self-aminoacylation, catalytic enhancement (BMO) (fold over background); higher = more active; k-Seq, kA / k0A0; sequences stand for … in GGGAAUGGAUCCACAUCUACGAAUUC…UUCACUGCAGACUUGACGAAGCUG
How it was run: as §1

biotinyl-Phe-oxazolone = assay: self-aminoacylation, catalytic enhancement (BFO) (fold over background); higher = more active; k-Seq, kA / k0A0; sequences stand for … in GGGAAUGGAUCCACAUCUACGAAUUC…UUCACUGCAGACUUGACGAAGCUG
How it was run: as §1

biotinyl-Trp-oxazolone = assay: self-aminoacylation, catalytic enhancement (BWO) (fold over background); higher = more active; k-Seq, kA / k0A0; sequences stand for … in GGGAAUGGAUCCACAUCUACGAAUUC…UUCACUGCAGACUUGACGAAGCUG
How it was run: as §1

Sequence	self-aminoacylation (biotinyl-Leu-oxazolone)	self-aminoacylation (biotinyl-Ile-oxazolone)	self-aminoacylation (biotinyl-Val-oxazolone)	self-aminoacylation (biotinyl-Met-oxazolone)	self-aminoacylation (biotinyl-Phe-oxazolone)	self-aminoacylation (biotinyl-Trp-oxazolone)
AUUACCCUGGUCAUGGCGUGA [Fam2.1 aminoacylation ribozyme variant]	17.4	7	10.3	16.2	125	19.4
AUUCACCUAGGUUUUCGGGUG [Fam2.2 aminoacylation ribozyme variant]	5.21	3.03	3.5	4.67	34.3	4.06
AUUCACCUAGCGCAUCGGGUG [Fam2.2 aminoacylation ribozyme variant]	2.96	1.55	1.68	1.72	10	2.14
AUGACCCUGGUCAUAGAGUGA [Fam2.1 aminoacylation ribozyme variant]	6.95	3.35	3.59	7.12	46.6	6.89
CUACUUCAAAUAAUCGGUCUA [Fam1A.1 aminoacylation ribozyme variant]	0.727	0.795	0.78	0.659	7.72	3.51
CUUACCCUGGCCAUCGAGUGA [Fam2.1 aminoacylation ribozyme variant]	4.34	2.78	2.65	2.99	9.12	3.51
AUUCACGUGGGUCAUCGGGUG [Fam2.2 aminoacylation ribozyme variant]	7.84	5.57	8.26	9.61	94	9.93
AUUACCCCGGUCAUCGAGUAA [Fam2.1 aminoacylation ribozyme variant]	1.9	1.53	1.26	1.2	5.28	2.01
AACUUUGCUAUUAGUCGCAAG [Fam3.1 aminoacylation ribozyme variant]	2.73	2.57	2	2.34	4.36	2.99
CCACACGUCACGCAAUCGGUC [Fam1B.1 aminoacylation ribozyme variant]	1.84	1.58	2.16	2.03	3.73	1.95
UUUCACCUAGGUCAUCCGGUG [Fam2.2 aminoacylation ribozyme variant]	5.87	4.39	4.32	4.88	35.9	6.5
AUUCCCCUGGUCAUCGUGUGA [Fam2.1 aminoacylation ribozyme variant]	5.32	2.66	3.33	5.03	37.6	5.65
CUACUUCAAAGAGUCGGUCUG [Fam1A.1 aminoacylation ribozyme variant]	0.849	0.695	0.835	1.13	0.46	0.754
CUACACUCCAAGCAAUCGGUC [Fam1B.1 aminoacylation ribozyme variant]	0.747	0.949	0.934	0.76	2.74	1.22
CCACACUUCAUGCCAUCGGUC [Fam1B.1 aminoacylation ribozyme variant]	0.921	0.957	1.1	0.691	0.488	1.59
UUUCACCUCGGUCAUCGGGUG [Fam2.2 aminoacylation ribozyme variant]	5.28	3.61	4.79	3.79	38.3	6.19
CUACUCCAAACAAUCGCUCUG [Fam1A.1 aminoacylation ribozyme variant]	0.949	1.11	0.884	0.783	1.32	0.596
CCACACUUCCAGCGAUCGGUC [Fam1B.1 aminoacylation ribozyme variant]	1.51	1.78	1.97	1.68	1.52	1.46
AAGUUUGCUAAUAGACUCAAG [Fam3.1 aminoacylation ribozyme variant]	0.313	0.416	0.427	0.332	0.758	0.449
CUACGUUAAACAAUCGGUCUG [Fam1A.1 aminoacylation ribozyme variant]	1.17	1.19	1.19	1.16	0.927	1.05
AUUCACCUAGGUCAUCGUCUG [Fam2.2 aminoacylation ribozyme variant]	0.717	0.663	0.718	0.67	0.312	0.376
CCUCACUUCAAGCAAUCCGUC [Fam1B.1 aminoacylation ribozyme variant]	0.736	0.935	0.873	0.613	1.94	0.756
CUACUUCAGACAAUCGGUCAG [Fam1A.1 aminoacylation ribozyme variant]	0.872	0.805	0.83	0.73	1.26	0.771
AAGUUUACUAAUAGUCGCCAG [Fam3.1 aminoacylation ribozyme variant]	1.24	1.42	1.21	1.23	1.61	1.31
AAGUUGGCUAAUAGGCGCAAG [Fam3.1 aminoacylation ribozyme variant]	1.41	1.71	1.23	1.14	1.49	1.19

Reference: the supplement of paper PMC9233669
